For the assay, the target named is toll-like receptor 5 (TLR5) (human (endogenous in MDA-MB-468 and MDA-MB-231)) (UniProt O60602).
Chain of UniProt O60602 (O60602 21-858): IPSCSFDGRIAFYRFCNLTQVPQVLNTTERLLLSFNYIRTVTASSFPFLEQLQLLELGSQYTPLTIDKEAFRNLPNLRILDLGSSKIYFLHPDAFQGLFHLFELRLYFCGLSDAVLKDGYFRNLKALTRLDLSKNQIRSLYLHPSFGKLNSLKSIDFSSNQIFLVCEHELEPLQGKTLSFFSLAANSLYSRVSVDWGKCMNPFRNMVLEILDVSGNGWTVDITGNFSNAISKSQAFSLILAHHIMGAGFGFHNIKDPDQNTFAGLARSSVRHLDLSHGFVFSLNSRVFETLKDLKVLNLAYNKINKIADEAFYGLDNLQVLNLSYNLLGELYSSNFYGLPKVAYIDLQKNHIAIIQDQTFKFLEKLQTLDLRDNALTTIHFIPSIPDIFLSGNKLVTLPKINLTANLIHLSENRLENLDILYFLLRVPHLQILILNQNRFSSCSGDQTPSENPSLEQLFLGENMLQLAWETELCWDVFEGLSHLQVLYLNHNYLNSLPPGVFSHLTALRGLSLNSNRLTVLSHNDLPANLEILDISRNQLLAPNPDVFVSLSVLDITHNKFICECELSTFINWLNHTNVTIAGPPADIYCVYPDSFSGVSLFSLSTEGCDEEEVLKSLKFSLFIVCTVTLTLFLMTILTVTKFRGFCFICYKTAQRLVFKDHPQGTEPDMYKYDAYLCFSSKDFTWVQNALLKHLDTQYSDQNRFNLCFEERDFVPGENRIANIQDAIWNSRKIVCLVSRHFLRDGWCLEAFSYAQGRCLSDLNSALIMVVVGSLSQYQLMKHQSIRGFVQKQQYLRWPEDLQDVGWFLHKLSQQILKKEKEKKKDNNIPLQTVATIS

On to “fibronectin EDA (FnEDA) domain (domain or fragment)”, for which the percent of IL-8 release (ELISA) by MDA-MB-231 cells in response to FnEDA (5 µM) that is inhibited by a blocking antibody to TLR5 was found to be 30%.
